Common to all, as to assay: SPR, VHH captured by anti-Fc, ECD analyte
Background: Surface plasmon resonance follows binding to a sensor surface in real time, without labels.

The target in experiment [1] is T1, rat pIgR extracellular domain (rat, UniProt P15083 19-643).
T1 construct: extracellular domain
T1 sequence (looked up): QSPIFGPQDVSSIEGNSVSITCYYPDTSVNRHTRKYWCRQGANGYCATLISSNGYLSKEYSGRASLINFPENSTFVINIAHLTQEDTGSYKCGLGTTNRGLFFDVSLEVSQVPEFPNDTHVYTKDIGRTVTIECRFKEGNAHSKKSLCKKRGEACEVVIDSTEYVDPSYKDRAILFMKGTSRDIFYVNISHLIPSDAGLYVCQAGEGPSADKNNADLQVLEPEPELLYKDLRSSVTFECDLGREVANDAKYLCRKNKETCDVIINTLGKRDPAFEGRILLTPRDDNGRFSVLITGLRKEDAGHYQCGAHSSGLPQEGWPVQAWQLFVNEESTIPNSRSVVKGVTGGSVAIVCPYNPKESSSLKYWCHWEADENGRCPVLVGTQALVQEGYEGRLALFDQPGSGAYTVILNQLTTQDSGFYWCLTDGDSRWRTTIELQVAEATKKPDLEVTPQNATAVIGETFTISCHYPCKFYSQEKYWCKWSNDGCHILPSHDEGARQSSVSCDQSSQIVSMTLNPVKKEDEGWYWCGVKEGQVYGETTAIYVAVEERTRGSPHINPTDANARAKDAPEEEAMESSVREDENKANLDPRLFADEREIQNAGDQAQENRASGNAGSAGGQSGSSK
In short, it runs like this:
(§1)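 Anti-human Fc surface captured VHH at 0.5 ug/ml (~200-300 RU); running buffer HBSP with 100 ug/ml BSA, 30 μL/min. Single-cycle kinetics with ECD injected low to high from 30 nM in 3-fold dilutions, dissociation 30 min. Double-referenced data globally fit to 1:1 Langmuir model for kon, koff, KD.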

For experiment [2], the target named is T2, mouse pIgR extracellular domain (ECD) (mouse, UniProt O70570 19-645).
T2 construct: Bought from R&D Systems (Cat 2800-PG-050); also called mpIgR ECD
T2 sequence: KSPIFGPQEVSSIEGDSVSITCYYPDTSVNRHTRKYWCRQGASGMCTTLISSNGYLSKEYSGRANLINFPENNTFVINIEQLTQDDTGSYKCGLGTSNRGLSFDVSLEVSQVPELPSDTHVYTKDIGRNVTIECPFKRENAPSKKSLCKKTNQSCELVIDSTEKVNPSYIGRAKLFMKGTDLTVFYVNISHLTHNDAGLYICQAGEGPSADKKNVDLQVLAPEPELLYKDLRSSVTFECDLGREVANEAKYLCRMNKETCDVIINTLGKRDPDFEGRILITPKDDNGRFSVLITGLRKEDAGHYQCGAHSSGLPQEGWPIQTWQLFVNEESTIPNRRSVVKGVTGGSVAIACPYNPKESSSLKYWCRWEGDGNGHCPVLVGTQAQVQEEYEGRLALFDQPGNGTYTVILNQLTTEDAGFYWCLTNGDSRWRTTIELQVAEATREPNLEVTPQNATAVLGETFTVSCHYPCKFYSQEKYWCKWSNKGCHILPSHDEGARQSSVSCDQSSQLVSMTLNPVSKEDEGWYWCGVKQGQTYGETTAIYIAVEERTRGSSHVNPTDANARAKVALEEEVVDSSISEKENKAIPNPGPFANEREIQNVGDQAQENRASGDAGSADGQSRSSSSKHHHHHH
The gist of the method: as §1

The target of experiment [3] is T3, cynomolgus monkey pIgR extracellular domain (cynomolgus monkey, UniProt A0A2K5WMU9 19-638).
T3 construct: extracellular domain
The gist of the method: as §1

The target in experiment [4] is T4, human pIgR extracellular domain (ECD) (human, UniProt P01833 19-638).
T4 construct: Bought from R&D Systems (Cat 2717-PG-050); also called hpIgR ECD
In short, it runs like this:
as §1

T4 sequence (P01833 other isoform, or with tags, fused parts or gaps): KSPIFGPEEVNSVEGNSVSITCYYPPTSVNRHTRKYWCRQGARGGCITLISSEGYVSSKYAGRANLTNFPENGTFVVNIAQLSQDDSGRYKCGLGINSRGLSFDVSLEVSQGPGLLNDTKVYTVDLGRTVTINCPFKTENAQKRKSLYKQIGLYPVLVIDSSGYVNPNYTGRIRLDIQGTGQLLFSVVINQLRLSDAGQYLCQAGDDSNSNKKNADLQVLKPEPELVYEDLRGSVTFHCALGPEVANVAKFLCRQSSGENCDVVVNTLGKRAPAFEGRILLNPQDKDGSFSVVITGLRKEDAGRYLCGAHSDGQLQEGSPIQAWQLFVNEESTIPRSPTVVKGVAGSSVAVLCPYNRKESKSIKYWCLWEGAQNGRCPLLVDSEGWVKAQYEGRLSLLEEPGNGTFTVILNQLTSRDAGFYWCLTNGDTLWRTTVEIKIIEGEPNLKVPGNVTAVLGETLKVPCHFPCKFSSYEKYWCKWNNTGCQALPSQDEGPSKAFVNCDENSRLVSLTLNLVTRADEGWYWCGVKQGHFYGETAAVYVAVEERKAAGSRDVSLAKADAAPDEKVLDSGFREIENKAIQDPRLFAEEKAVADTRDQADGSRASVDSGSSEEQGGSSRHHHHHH
T3 sequence (A0A2K5WMU9 entry or part of it): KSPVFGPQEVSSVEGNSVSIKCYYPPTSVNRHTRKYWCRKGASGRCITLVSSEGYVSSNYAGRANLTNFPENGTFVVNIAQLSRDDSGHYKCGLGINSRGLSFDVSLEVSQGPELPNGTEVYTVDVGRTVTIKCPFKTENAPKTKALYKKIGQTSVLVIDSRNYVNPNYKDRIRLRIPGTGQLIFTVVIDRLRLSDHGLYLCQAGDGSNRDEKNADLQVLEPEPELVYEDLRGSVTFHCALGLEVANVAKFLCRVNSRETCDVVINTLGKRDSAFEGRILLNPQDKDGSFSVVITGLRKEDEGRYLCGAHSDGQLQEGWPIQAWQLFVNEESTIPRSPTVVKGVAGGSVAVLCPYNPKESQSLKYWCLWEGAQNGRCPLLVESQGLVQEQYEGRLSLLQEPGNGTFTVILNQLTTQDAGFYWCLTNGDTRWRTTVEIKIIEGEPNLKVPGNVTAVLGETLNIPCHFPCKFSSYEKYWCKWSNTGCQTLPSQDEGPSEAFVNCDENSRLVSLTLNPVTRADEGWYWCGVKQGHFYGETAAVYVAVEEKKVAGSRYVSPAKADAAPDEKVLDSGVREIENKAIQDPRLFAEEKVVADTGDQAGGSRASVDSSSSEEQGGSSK

B1: 01F04R2LS VHH Mono-Fc (Fc fusion)
chain: EVQLVESGGGLVQTGGSLRLSCAASGRTFSSYAMGWFRQAPGKEPERDFVAALRWSNDRTYYKYYADSVKGRFTISRDNAKNTVYLQMNTLKPEDTAVYYCAGGNYFSDPRVDKEYNYWGQGTQVTVSSSPAPELLGGPSVFLFPPKPKDTLMISRTPEVTCVVVDVSHEDPEVKFNWYVDGVEVHNAKTKPREEQYNSTYRVVSVLTVLHQDWLNGKEYKCKVSNKALPAPIEKTISKAKGQPREPQVYTKPPSREEMTKNQVSLSCLVKGFYPSDIAVEWESNGQPENNYKTTVPVLDSDGSFRLASYLTVDKSRWQQGNVFSCSVMHEALHNHYTQKSLSLSPGK
On to B1, for which the Kd in experiment [1] was found to be 8.9 nM; in experiment [2], 9.03 nM; in experiment [3] it was 28 nM; in experiment [4] it was 35.8 nM.

B2: 01G08R3LS VHH Mono-Fc (Fc fusion)
chain: QVQLVESGGGLVQAGDSLRLSCAASGRTFTTYGMGWFRQGPGKEREFVATITWSGSTNYKYYTDSVKGRFTISRDNAKNTVYLQMNSLKPEDTAVYYCAASTVLTDPRRLNEYDYWGQGTQVTVSSSPAPELLGGPSVFLFPPKPKDTLMISRTPEVTCVVVDVSHEDPEVKFNWYVDGVEVHNAKTKPREEQYNSTYRVVSVLTVLHQDWLNGKEYKCKVSNKALPAPIEKTISKAKGQPREPQVYTKPPSREEMTKNQVSLSCLVKGFYPSDIAVEWESNGQPENNYKTTVPVLDSDGSFRLASYLTVDKSRWQQGNVFSCSVMHEALHNHYTQKSLSLSPGK
As to B2, the Kd came to 2.27 nM in experiment [1], 5.6 nM in experiment [2], 5.42 nM in experiment [3] and 8.38 nM in experiment [4].

B3: 01H06R3L VHH Mono-Fc (Fc fusion)
chain: EVQLVESGGGLVQAGDSLRLSCAASGRTRTTYGMGWFRQAPGKEREFVTTITWSGPTNYKYYADSVKGRFTISRDNAKNTAYLQMNSLKPDDTAVYYCAASTVLTDPRVPTEYDYWGQGTQVTVSSSPAPELLGGPSVFLFPPKPKDTLMISRTPEVTCVVVDVSHEDPEVKFNWYVDGVEVHNAKTKPREEQYNSTYRVVSVLTVLHQDWLNGKEYKCKVSNKALPAPIEKTISKAKGQPREPQVYTKPPSREEMTKNQVSLSCLVKGFYPSDIAVEWESNGQPENNYKTTVPVLDSDGSFRLASYLTVDKSRWQQGNVFSCSVMHEALHNHYTQKSLSLSPGK
Consider B3, for which the Kd in experiment [1] was found to be 0.897 nM; in experiment [2] it was 4.56 nM; in experiment [3] it was 1.66 nM; in experiment [4] it was 5.26 nM.

B4: 02E01R3LS VHH Mono-Fc (Fc fusion)
chain: QVQLVESGGGLVQAGDSLRLSCAASGRTFTTYGMGWFRQAPGKEREFVTTITWSGSTNYKYYADSVKGRFTISRDNAKNTVYLQMNSLKPDDTAVYYCAASTVLRDPRVPTEYDYWGQGTQVTVSSSPAPELLGGPSVFLFPPKPKDTLMISRTPEVTCVVVDVSHEDPEVKFNWYVDGVEVHNAKTKPREEQYNSTYRVVSVLTVLHQDWLNGKEYKCKVSNKALPAPIEKTISKAKGQPREPQVYTKPPSREEMTKNQVSLSCLVKGFYPSDIAVEWESNGQPENNYKTTVPVLDSDGSFRLASYLTVDKSRWQQGNVFSCSVMHEALHNHYTQKSLSLSPGK
As to B4, the Kd in experiment [1] came out at 1.64 nM; in experiment [2] it was 2.77 nM; in experiment [3] it was 5.05 nM; in experiment [4], 5.32 nM.

B5: 01H11R2LS VHH Mono-Fc (Fc fusion)
chain: EVQLVESGGGLVQAGDSLRLSCAASGRTLTTYGMGWFRQAPGKEREFVATIKWSGSTNYKYYADSVKGRFTISRDNAKNTVYLQMNSLKPEDTAVYYCAAGTVLGDPRVLNEYDYWGQGTLVTVSSSPAPELLGGPSVFLFPPKPKDTLMISRTPEVTCVVVDVSHEDPEVKFNWYVDGVEVHNAKTKPREEQYNSTYRVVSVLTVLHQDWLNGKEYKCKVSNKALPAPIEKTISKAKGQPREPQVYTKPPSREEMTKNQVSLSCLVKGFYPSDIAVEWESNGQPENNYKTTVPVLDSDGSFRLASYLTVDKSRWQQGNVFSCSVMHEALHNHYTQKSLSLSPGK
Regarding B5, the Kd amounted to 1.46 nM in experiment [1], 2.67 nM in experiment [2], 2.31 nM in experiment [3] and 4.07 nM in experiment [4].

B6: 01A09R3L VHH Mono-Fc (Fc fusion)
chain: EVQLVESGGGVVQAEDSLRLSCAASGLSFSLSRMGWFRQAPGKEREFVATIEWSGRSTYKYYDDSVKGRFAVSGDNTKNTMNLQMKGLNLEDTGVYYCAANPNNYGDPRTPGAYQYWGQGTQVTVSSSPAPELLGGPSVFLFPPKPKDTLMISRTPEVTCVVVDVSHEDPEVKFNWYVDGVEVHNAKTKPREEQYNSTYRVVSVLTVLHQDWLNGKEYKCKVSNKALPAPIEKTISKAKGQPREPQVYTKPPSREEMTKNQVSLSCLVKGFYPSDIAVEWESNGQPENNYKTTVPVLDSDGSFRLASYLTVDKSRWQQGNVFSCSVMHEALHNHYTQKSLSLSPGK
For the molecule B6, the Kd in experiment [1] turned out to be 0.234 nM; in experiment [2], 0.301 nM; in experiment [3], 0.353 nM; in experiment [4], 0.681 nM.

B7: 01H08R3 VHH Mono-Fc (Fc fusion)
chain: QVQLVESGGGSVQTGGSLRLSCTASGRTFSNYGMGWFRQAPGKEREFVAGITRSGRTTYYYYADAVKGRFTIPRDNADNTIYLQMDSMKPDDTAVYYCAARQGENNYDPRSGSAYNYWGPGTQVTVSSSPAPELLGGPSVFLFPPKPKDTLMISRTPEVTCVVVDVSHEDPEVKFNWYVDGVEVHNAKTKPREEQYNSTYRVVSVLTVLHQDWLNGKEYKCKVSNKALPAPIEKTISKAKGQPREPQVYTKPPSREEMTKNQVSLSCLVKGFYPSDIAVEWESNGQPENNYKTTVPVLDSDGSFRLASYLTVDKSRWQQGNVFSCSVMHEALHNHYTQKSLSLSPGK
Regarding B7, the Kd was determined as 6.19 nM in experiment [1], 3.95 nM in experiment [2], 44.3 nM in experiment [3] and 61 nM in experiment [4].

B8: 01D05R2LS VHH Mono-Fc (Fc fusion)
chain: EVQLVESGGGLVQTGGSLRLSCAASGRTFSPYAMGWFRQAPGKEREFVAAIRWSGATTYKYVGDSVQGRFTISRDAAGNTVYLQMNSVKPEDTAVYYCAADRVPKDISIDPRNPKDWDYWGKGTLVTVSSSPAPELLGGPSVFLFPPKPKDTLMISRTPEVTCVVVDVSHEDPEVKFNWYVDGVEVHNAKTKPREEQYNSTYRVVSVLTVLHQDWLNGKEYKCKVSNKALPAPIEKTISKAKGQPREPQVYTKPPSREEMTKNQVSLSCLVKGFYPSDIAVEWESNGQPENNYKTTVPVLDSDGSFRLASYLTVDKSRWQQGNVFSCSVMHEALHNHYTQKSLSLSPGK
B8: the Kd in experiment [1] stood at 33.3 nM; in experiment [2], 13.9 nM; in experiment [3] it was 116 nM; in experiment [4] it was 7.9 nM.

B9: 01H01R2LS VHH Mono-Fc (Fc fusion)
chain: EVQLVESGGGLVQTGGSLRLSCAASGRTFSPYAMGWFRQAPGKEREFVAAIRWSGATTYKYVGGSVQGRFTISRDAAGNTVYLQMNSVKPEDTAVYYCAADRVPKDISIDPRNPKDWDYWGKGTQVTVSSSPAPELLGGPSVFLFPPKPKDTLMISRTPEVTCVVVDVSHEDPEVKFNWYVDGVEVHNAKTKPREEQYNSTYRVVSVLTVLHQDWLNGKEYKCKVSNKALPAPIEKTISKAKGQPREPQVYTKPPSREEMTKNQVSLSCLVKGFYPSDIAVEWESNGQPENNYKTTVPVLDSDGSFRLASYLTVDKSRWQQGNVFSCSVMHEALHNHYTQKSLSLSPGK
Turning to B9, the Kd in experiment [1] turned out to be 18.1 nM; in experiment [2], 12.8 nM; in experiment [3], 123 nM; in experiment [4] it was 6.91 nM.

B10: 01B06R2LS VHH Mono-Fc (Fc fusion)
chain: QVQLVESGGGLVQTGGSLRLSCAASGRTFSPYAMGWFRQAPGKEREFVAAIRWSGATTYKYVGDSVQGRFTISRDAAGNTVYLQMNSVKPEDTAVYYCAADRVPKDISIDPRNPKDWDYWGKGTLVTVSSSPAPELLGGPSVFLFPPKPKDTLMISRTPEVTCVVVDVSHEDPEVKFNWYVDGVEVHNAKTKPREEQYNSTYRVVSVLTVLHQDWLNGKEYKCKVSNKALPAPIEKTISKAKGQPREPQVYTKPPSREEMTKNQVSLSCLVKGFYPSDIAVEWESNGQPENNYKTTVPVLDSDGSFRLASYLTVDKSRWQQGNVFSCSVMHEALHNHYTQKSLSLSPGK
On to B10, for which the Kd in experiment [1] was 33.2 nM; in experiment [2], 14.8 nM; in experiment [3], 111 nM; in experiment [4] it was 8.46 nM.

Broadly, the Kd is a measure of binding affinity in units of concentration.
